Reference: patent US20090208476A1 (published 2009)
Where no end group is shown, it is not given here.

T1: DC-SIGN (DC-specific intercellular adhesion molecule 3-grabbing nonintegrin) (UniProt Q9NNX6 62-404, limits assumed)
T1 sequence (looked up): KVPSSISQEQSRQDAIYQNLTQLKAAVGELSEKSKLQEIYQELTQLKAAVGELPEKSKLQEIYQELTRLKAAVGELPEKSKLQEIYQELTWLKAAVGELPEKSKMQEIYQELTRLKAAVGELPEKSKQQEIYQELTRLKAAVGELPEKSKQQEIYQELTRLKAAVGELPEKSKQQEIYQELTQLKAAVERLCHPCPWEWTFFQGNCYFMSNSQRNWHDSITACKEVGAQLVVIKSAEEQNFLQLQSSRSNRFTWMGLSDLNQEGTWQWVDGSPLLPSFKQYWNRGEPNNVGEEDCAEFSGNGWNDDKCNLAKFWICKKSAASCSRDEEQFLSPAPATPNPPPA

T2: Plasmodium falciparum MSP1-19 (C-terminal fragment of merozoite surface protein 1) (Plasmodium falciparum, UniProt Q8I0U8 1607-1699)
T2 construct: domain: MSP1-19; also called Pf MSP1-19; PfMSP1-19
T2 sequence: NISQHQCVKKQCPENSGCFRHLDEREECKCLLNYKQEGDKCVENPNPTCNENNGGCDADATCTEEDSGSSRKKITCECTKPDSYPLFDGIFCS

B1: GST-Azu 88-113 (GST fused to azurin amino acids 88 to 113) (other)
chain: {GST}-GSGEKDSVTFDVSKLKEGEQYMFFCT
modifications: also: GST fusion, vector linker residues not given here
notes: not shown: glutathione S-transferase from the commercial vector pGEX-5X
B2: GST-Azu 36-89 (GST fused to azurin amino acids 36 to 89) (other)
chain: {GST}-PGNLPKNVMGHNWVLSTAADMQGVVTDGMASGLDKDYLKPDDSRVIAHTKLIGS
modifications: also: GST fusion, vector linker residues not given here
notes: also called pGST-azu 36-89 product; not shown: glutathione S-transferase from the commercial vector pGEX-5X
B3: GST-Azu 36-128 (GST fused to azurin amino acids 36 to 128) (other)
chain: PGNLPKNVMGHNWVLSTAADMQGVVTDGMASGLDKDYLKPDDSRVIAHTKLIGSGEKDSVTFDVSKLKEGEQYMFFCTFPGHSALMKGTLTLK
notes: The azurin fragment was cloned into the BamHI/EcoRI sites of pGEX-5X; not shown: glutathione S-transferase from the commercial vector pGEX-5X

Assays:
[1] = target: T1, DC-SIGN (DC-specific intercellular …); test: SPR, DC-SIGN immobilised on CM5 chip, equilibrium fit Req=Rmax/(1+(Kd/C))
[2] = target: T2, Plasmodium falciparum MSP1-19 …; test: SPR, MSP1-19 immobilised on CM5 chip
[3] = target: T3, CD4 (UniProt P01730 26-396); test: SPR, CD4 immobilised on CM5 chip, equilibrium fit Req=Rmax/(1+(Kd/C))
T3 construct: Bought protein; also called CD4 (Protein Sciences Corp.)

| Binder | Kd [1] [nM] | Kd [2] [nM] | Kd [3] [nM] |
| --- | --- | --- | --- |
| B1 | 5.98 | – | – |
| B2 | – | 20.9 | – |
| B3 | – | 24.5 | 0.34 |
